Data taken from IntAct's records for PubMed 22922713.

B1: WD repeat-containing protein 19 (Mus musculus), Q3UGF1 (parent)
chain: MKRVFSLLEKSWLGAPIQFAWQKSSGNYLAVTGADYIVKIFDRHGQKRSEISLPGNCVTMDWDKDGDILAVIAEKSSCIYLWDANTNKTSQLDNGMRDQMSFLLWSKIGSFLAVGTIKGNLLIYNHQTSRKIPVLGKHTKKITCGCWNSENLLALGGEDKMITVSNQEGDTIRQTPVKSEPSDIKFSMSKTDERISSAENTISAVVGKKMLFLFHLNEPDNPVDLEFQQAYGNIVCYSWYGDGYIMIGFSRGTFLAISTHFPEVGQEIFKARDHKDNLTSVALSQTLNKAATCGDNCIKIHDLTELRDMYAIINLDDENKGLGTLSWTDDGQLLALSTQRGSLHVFLTKLPILGDACHTRIAYLTSLLEVTVANLIEGEPPITVSVDVEPTFVAVGLYHLAVGMNNRAWFYVLGENVVKKLKDVEYLGTVASICLHSDYAAALFEGKIQLHLIENEMLDAQEERETRLFPAVDDKCRILCHALTSDFLIYGTDTGIIHYFFIEDWQFVNDYRHPVGVKKLFPDPNGTRLVFIDEKSDGFVYCPVNDATYEIPDFSPTIKGVLWENWPMDKGVFIAYDDDKVYTYAFHKDTIQGSKVILAGSTKLPFSHKPLLLYNGELTCQTQSGKINSIYLSTHSFLGSMKDTEPTDLRQMLTQTLLLKRFSDAWDICKMLNDRTSWSELAKACLHHMEVEFAIRVSRTMGDVGTVMSLEQIKGIEDYNLLAGHLAMFTNDFNLAQDLYLASNCPVAALEMRRDLQHWDSALQLAKRLAPDQIPFISKEYAIQLEFTGDYVNALAHYEKGITGDNKEHDEVCLAGVAQMSIRMGDIRRGANQALKHPSRVLKRDCGAILENMKQFSEAAQLYEKGQYYDRAASVYIRCKNWAKVGELLPHVSSPKIHLQYAKAKEADGRYKEAVVAYENAKQWNSVIRIYLDHLNNPEKAVSIVRETQSLDGAKMVARFFLQLGDYGSAIQFLVLSKCNNEAFTLAQQHNKMEIYADIIGAEDTTNEDYQSIALYFEGEKRHFQAGKFFLLCGQYSRALKHFLKCPSSEDNVAIEMAIETVGQAKDELLTNQLIDHLMGESDGMPKDAKYLFRLYMALKQYREAARTAIIIAREEQSAGNYRNAHDVLFSMYAELKAQKIKIPSEMATNLMILHSYILVKIHVKSGDHMKGARMLIRVANNISKFPSHIVPILTSTVIECHRAGLKNSAFSFAAMLMRPEYRNKIDAKYKKKIEAMVRRPDTSETEEATTPCPFCQFLLPECELLCPGCKNNIPYCIATGRHMLKDDWTMCPHCGFPALYSEFKILLNSESTCPMCSERLNSSQLKKITDCSQYLRTEME
partner: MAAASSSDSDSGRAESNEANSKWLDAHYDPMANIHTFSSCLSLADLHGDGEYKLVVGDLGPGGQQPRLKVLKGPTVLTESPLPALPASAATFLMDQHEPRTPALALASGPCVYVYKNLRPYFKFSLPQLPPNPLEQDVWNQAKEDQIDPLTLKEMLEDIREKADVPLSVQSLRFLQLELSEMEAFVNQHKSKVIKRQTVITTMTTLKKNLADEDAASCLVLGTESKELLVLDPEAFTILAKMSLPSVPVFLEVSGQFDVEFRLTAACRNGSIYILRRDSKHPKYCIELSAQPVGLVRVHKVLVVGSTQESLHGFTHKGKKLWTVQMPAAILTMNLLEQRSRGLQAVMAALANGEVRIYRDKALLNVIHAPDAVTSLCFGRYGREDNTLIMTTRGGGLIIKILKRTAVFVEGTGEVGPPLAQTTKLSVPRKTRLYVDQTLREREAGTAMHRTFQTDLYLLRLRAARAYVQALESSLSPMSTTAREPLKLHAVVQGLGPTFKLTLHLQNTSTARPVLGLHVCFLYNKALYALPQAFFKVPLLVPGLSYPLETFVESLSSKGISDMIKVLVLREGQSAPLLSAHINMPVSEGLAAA

Variants of: B1
Details: with bbs1_mouse Bbs1, Q3V3N7
G341R was tested, and the “effect of a mutation on the interaction” value was “decreasing interaction strength”.
